This series concerns CIZ1 N571 (GST-N571) (Mus musculus). The experiment in a line: EMSA. To be noted: 0.3 nM RNA; 10 mM Tris-HCl pH 7.5, 30 mM NaCl, 2.5 mM MgCl2, 0.2 mM DTT, 0.1% IGEPAL CA-630, 0.1 mg/ml yeast tRNA, 0.4 U RNaseOUT, 1% glycerol; 30 C 20 min; 0.7% agarose …. For orientation: A gel shift assay detects complexes by their altered migration in electrophoresis.

The record followed here is article PMC8927971.

In turn, Xist repeat E proximal gave a K half of 100 nM.

As for Xist repeat A, the K half was found to be 200 nM.
